Measurements from patent US7658917 (PRAECIS PHARMACEUTICALS, dated 2010).
Numbered stars: 1 amine (or outer) side, 2 acyl side, 3 side chain; on linkers, the order of the positions; unused ones are H or OH. Square brackets hold non-standard residues; d marks the D form. Primed or numbered codes have the meaning given here. * marks the point of attachment. Aic′ = 3-(O-aminoethyl-iso)-cholyl, C[C@H](CCC(=O)*)[C@H]1CC[C@H]2[C@@H]3[C@H](O)C[C@@H]4C[C@@H](OCCN)CC[C@]4(C)[C@H]3C[C@H](O)[C@]12C; Cholyl = C[C@H](CCC(=O)*)[C@H]1CC[C@H]2[C@@H]3[C@H](O)C[C@@H]4C[C@H](O)CC[C@]4(C)[C@H]3C[C@H](O)[C@]12C; Adp = aminoethyldibenzofuranylpropanoic acid, O=C(CCc1cccc2c1oc1c(CCN[*:1])cccc12)[*:2]; Tyr(3-I) = N[C@@H](Cc1ccc(O)c(I)c1)C(=O)O; Aic″ = 3-(O-aminoethyl-iso)-cholyl; NANA = N-acetyl neuraminyl; βAla = NCCC(=O)O

Biological target: natural β-amyloid peptide β-AP1-40 (human)
Test: cell-based or functional assay

Chain of natural β-amyloid peptide β-AP1-40 (human) (peptide, as listed by the source): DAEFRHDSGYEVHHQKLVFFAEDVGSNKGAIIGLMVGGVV

Q: Cholyl-HQKLVFF-NH2 [CA-HQKLVFF-nh2] was tested. Which “% Inucl'n; nucleation assay; 33 mole %” value did it give?
A: 5%

Q: And the “ΔLag; nucleation assay; 33 mole %” value?
A: 1.1 ratio

Q: With {NANA}-HQKLVFF-NH2 [NANA-HQKLVFF-nh2] as the binder, how does the “% Inucl'n; nucleation assay; 100 mole %” value read?
A: -15%

Q: And the “ΔLag; nucleation assay; 100 mole %” value?
A: 1.5 ratio

B1: CA-KLVFF(βA)-oh (peptide)
peptide: Cholyl-KLVFF[βAla]-OH
SMILES: CC(C)C[C@H](NC(=O)[C@H](CCCCN)NC(=O)CC[C@@H](C)[C@H]1CC[C@H]2[C@@H]3[C@H](O)C[C@@H]4C[C@H](O)CC[C@]4(C)[C@H]3C[C@H](O)[C@]12C)C(=O)N[C@H](C(=O)N[C@@H](Cc1ccccc1)C(=O)N[C@@H](Cc1ccccc1)C(=O)NCCC(=O)O)C(C)C
Q: With B1 as the binder, how does the “% Iext'n; seeded extension assay; 25 mole %” value (“% Iext'n” for short) read?
A: 80%

Q: And the “% Inucl'n; nucleation assay; 100 mole %” value?
A: 76%

Q: What about the “ΔLag; nucleation assay; 100 mole %” value of the same binder?
A: 2.5 ratio

B2: CA-FKFVL-oh (peptide)
peptide: Cholyl-FKFVL-OH
SMILES: CC(C)C[C@H](NC(=O)[C@@H](NC(=O)[C@H](Cc1ccccc1)NC(=O)[C@H](CCCCN)NC(=O)[C@H](Cc1ccccc1)NC(=O)CC[C@@H](C)[C@H]1CC[C@H]2[C@@H]3[C@H](O)C[C@@H]4C[C@H](O)CC[C@]4(C)[C@H]3C[C@H](O)[C@]12C)C(C)C)C(=O)O
Q: Which results are given for B2?
A: % Iext'n; seeded extension assay; 25 mole %: 37%; % Inucl'n; nucleation assay; 100 mole %: 45%; ΔLag; nucleation assay; 100 mole %: 0.8 ratio

Q: Which “% Iext'n” value does the source give for {NANA}-KLVFF-OH [NANA-KLVFF-oh] here?
A: 8%

Q: And the “% Inucl'n; nucleation assay; 100 mole %” value?
A: 16%

Q: And the “ΔLag; nucleation assay; 100 mole %” value?
A: 0.9 ratio

B3: CA-KTVFF-oh (peptide)
peptide: Cholyl-KTVFF-OH
SMILES: CC(C)[C@H](NC(=O)[C@@H](NC(=O)[C@H](CCCCN)NC(=O)CC[C@@H](C)[C@H]1CC[C@H]2[C@@H]3[C@H](O)C[C@@H]4C[C@H](O)CC[C@]4(C)[C@H]3C[C@H](O)[C@]12C)[C@@H](C)O)C(=O)N[C@@H](Cc1ccccc1)C(=O)N[C@@H](Cc1ccccc1)C(=O)O
Q: Which results are given for B3?
A: % Iext'n; seeded extension assay; 25 mole %: 21%; % Inucl'n; nucleation assay; 100 mole %: 18%; ΔLag; nucleation assay; 100 mole %: 1.2 ratio

B4: CA-LVFFAE-oh (peptide)
peptide: Cholyl-LVFFAE-OH
SMILES: CC(C)C[C@H](NC(=O)CC[C@@H](C)[C@H]1CC[C@H]2[C@@H]3[C@H](O)C[C@@H]4C[C@H](O)CC[C@]4(C)[C@H]3C[C@H](O)[C@]12C)C(=O)N[C@H](C(=O)N[C@@H](Cc1ccccc1)C(=O)N[C@@H](Cc1ccccc1)C(=O)N[C@@H](C)C(=O)N[C@@H](CCC(=O)O)C(=O)O)C(C)C
Q: How did the “% Iext'n” value turn out when B4 was run?
A: 16%

Q: What about the “% Inucl'n; nucleation assay; 100 mole %” value of the same binder?
A: 55%

Q: And the “ΔLag; nucleation assay; 100 mole %” value?
A: 1.4 ratio

Q: How did the “% Iext'n” value turn out when Cholyl-LVFF-OH [CA-LVFF-oh] was run?
A: 51%

Q: And the “% Inucl'n; nucleation assay; 33 mole %” value?
A: 72%

Q: And the “ΔLag; nucleation assay; 33 mole %” value?
A: 1.8 ratio

Q: How did the “% Iext'n” value turn out when Cholyl-LVFFA-NH2 [CA-LVFFA-nh2] was run?
A: 91%

Q: What about the “% Inucl'n; nucleation assay; 100 mole %” value of the same binder?
A: -200%

Q: What about the “ΔLag; nucleation assay; 100 mole %” value of the same binder?
A: 1 ratio

B5: h-DDIIL-(Adp)-VFF-oh (peptide)
peptide: H-DDIIL[Adp]VFF-OH
SMILES: CC[C@H](C)[C@H](NC(=O)[C@H](CC(=O)O)NC(=O)[C@@H](N)CC(=O)O)C(=O)N[C@H](C(=O)N[C@@H](CC(C)C)C(=O)NCCc1cccc2c1oc1c(CCC(=O)N[C@H](C(=O)N[C@@H](Cc3ccccc3)C(=O)N[C@@H](Cc3ccccc3)C(=O)O)C(C)C)cccc12)[C@@H](C)CC
Q: What does the source list for B5?
A: % Iext'n; seeded extension assay; 25 mole %: 0%; % Inucl'n; nucleation assay; 100 mole %: 14%; ΔLag; nucleation assay; 100 mole %: 0.4 ratio

Q: H-LVFFA-OH [h-LVFFA-oh] was tested. Which “% Iext'n” value did it give?
A: 11%

Q: What about the “% Inucl'n; nucleation assay; 100 mole %” value of the same binder?
A: 15%

Q: And the “ΔLag; nucleation assay; 100 mole %” value?
A: 1 ratio

Q: How did the “% Iext'n” value turn out when H-KLVFF-NH2 [h-KLVFF-nh2] was run?
A: 39%

Q: What about the “% Inucl'n; nucleation assay; 100 mole %” value of the same binder?
A: -9%

Q: What about the “ΔLag; nucleation assay; 100 mole %” value of the same binder?
A: 1.3 ratio

B6: CA-AVFFA-oh (peptide)
peptide: Cholyl-AVFFA-OH
SMILES: CC(C)[C@H](NC(=O)[C@H](C)NC(=O)CC[C@@H](C)[C@H]1CC[C@H]2[C@@H]3[C@H](O)C[C@@H]4C[C@H](O)CC[C@]4(C)[C@H]3C[C@H](O)[C@]12C)C(=O)N[C@@H](Cc1ccccc1)C(=O)N[C@@H](Cc1ccccc1)C(=O)N[C@@H](C)C(=O)O
Q: For B6, which “% Iext'n” value is on record?
A: 44%

Q: And the “% Inucl'n; nucleation assay; 100 mole %” value?
A: 68%

Q: And the “ΔLag; nucleation assay; 100 mole %” value?
A: 1.4 ratio

B7: CA-LAFFA-oh (peptide)
peptide: Cholyl-LAFFA-OH
SMILES: CC(C)C[C@H](NC(=O)CC[C@@H](C)[C@H]1CC[C@H]2[C@@H]3[C@H](O)C[C@@H]4C[C@H](O)CC[C@]4(C)[C@H]3C[C@H](O)[C@]12C)C(=O)N[C@@H](C)C(=O)N[C@@H](Cc1ccccc1)C(=O)N[C@@H](Cc1ccccc1)C(=O)N[C@@H](C)C(=O)O
Q: Which “% Iext'n” value does the source give for B7 here?
A: 66%

Q: What about the “% Inucl'n; nucleation assay; 100 mole %” value of the same binder?
A: 47%

Q: What about the “ΔLag; nucleation assay; 100 mole %” value of the same binder?
A: 1.5 ratio

B8: CA-LVAFA-oh (peptide)
peptide: Cholyl-LVAFA-OH
SMILES: CC(C)C[C@H](NC(=O)CC[C@@H](C)[C@H]1CC[C@H]2[C@@H]3[C@H](O)C[C@@H]4C[C@H](O)CC[C@]4(C)[C@H]3C[C@H](O)[C@]12C)C(=O)N[C@H](C(=O)N[C@@H](C)C(=O)N[C@@H](Cc1ccccc1)C(=O)N[C@@H](C)C(=O)O)C(C)C
Q: For B8, which “% Iext'n” value is on record?
A: 0%

Q: And the “% Inucl'n; nucleation assay; 100 mole %” value?
A: 25%

Q: What about the “ΔLag; nucleation assay; 100 mole %” value of the same binder?
A: 2.7 ratio

B9: CA-VFFA-oh (peptide)
peptide: Cholyl-VFFA-OH
SMILES: CC(C)[C@H](NC(=O)CC[C@@H](C)[C@H]1CC[C@H]2[C@@H]3[C@H](O)C[C@@H]4C[C@H](O)CC[C@]4(C)[C@H]3C[C@H](O)[C@]12C)C(=O)N[C@@H](Cc1ccccc1)C(=O)N[C@@H](Cc1ccccc1)C(=O)N[C@@H](C)C(=O)O
Q: What does the source list for B9?
A: % Iext'n; seeded extension assay; 25 mole %: 10%; % Inucl'n; nucleation assay; 100 mole %: 76%; ΔLag; nucleation assay; 100 mole %: 2 ratio

B10: CA-LVF-oh (peptide)
peptide: Cholyl-Leu-Val-Phe-OH
SMILES: CC(C)C[C@H](NC(=O)CC[C@@H](C)[C@H]1CC[C@H]2[C@@H]3[C@H](O)C[C@@H]4C[C@H](O)CC[C@]4(C)[C@H]3C[C@H](O)[C@]12C)C(=O)N[C@H](C(=O)N[C@@H](Cc1ccccc1)C(=O)O)C(C)C
Q: B10 was tested. Which “% Iext'n” value did it give?
A: 0%

Q: What about the “% Inucl'n; nucleation assay; 100 mole %” value of the same binder?
A: 1%

Q: What about the “ΔLag; nucleation assay; 100 mole %” value of the same binder?
A: 1.3 ratio

B11: CA-VFF-oh (peptide)
peptide: Cholyl-Val-Phe-Phe-OH
SMILES: CC(C)[C@H](NC(=O)CC[C@@H](C)[C@H]1CC[C@H]2[C@@H]3[C@H](O)C[C@@H]4C[C@H](O)CC[C@]4(C)[C@H]3C[C@H](O)[C@]12C)C(=O)N[C@@H](Cc1ccccc1)C(=O)N[C@@H](Cc1ccccc1)C(=O)O
Q: With B11 as the binder, how does the “% Iext'n” value read?
A: 0%

Q: What about the “% Inucl'n; nucleation assay; 100 mole %” value of the same binder?
A: 55%

Q: What about the “ΔLag; nucleation assay; 100 mole %” value of the same binder?
A: 1.8 ratio

B12: CA-FFA-oh (peptide)
peptide: Cholyl-Phe-Phe-Ala-OH
SMILES: C[C@H](NC(=O)[C@H](Cc1ccccc1)NC(=O)[C@H](Cc1ccccc1)NC(=O)CC[C@@H](C)[C@H]1CC[C@H]2[C@@H]3[C@H](O)C[C@@H]4C[C@H](O)CC[C@]4(C)[C@H]3C[C@H](O)[C@]12C)C(=O)O
Q: Which results are given for B12?
A: % Iext'n; seeded extension assay; 25 mole %: 6%; % Inucl'n; nucleation assay; 100 mole %: 51%; ΔLag; nucleation assay; 100 mole %: 1 ratio

Q: How did the “% Iext'n” value turn out when Cholyl-LV[Tyr(3-I)]FA-OH [CA-LV(IY)FA-oh] was run?
A: 71%

Q: What about the “% Inucl'n; nucleation assay; 100 mole %” value of the same binder?
A: 100%

Q: And the “ΔLag; nucleation assay; 100 mole %” value?
A: > 5 ratio

Q: How did the “% Iext'n” value turn out when Cholyl-LVFFA-OMe [CA-LVFFA-o-methyl] was run?
A: 0%

Q: Which “% Iext'n” value does the source give for H-LVFFA-NH2 [h-LVFFA-nh2] here?
A: 70%

Q: And the “% Inucl'n; nucleation assay; 100 mole %” value?
A: 11%

Q: And the “ΔLag; nucleation assay; 100 mole %” value?
A: 1.3 ratio

B13: CA-LVFFK-oh (peptide)
peptide: Cholyl-LVFFK-OH
SMILES: CC(C)C[C@H](NC(=O)CC[C@@H](C)[C@H]1CC[C@H]2[C@@H]3[C@H](O)C[C@@H]4C[C@H](O)CC[C@]4(C)[C@H]3C[C@H](O)[C@]12C)C(=O)N[C@H](C(=O)N[C@@H](Cc1ccccc1)C(=O)N[C@@H](Cc1ccccc1)C(=O)N[C@@H](CCCCN)C(=O)O)C(C)C
Q: With B13 as the binder, how does the “% Iext'n” value read?
A: 85%

Q: And the “% Inucl'n; nucleation assay; 33 mole %” value?
A: 100%

Q: And the “ΔLag; nucleation assay; 33 mole %” value?
A: > 5 ratio

Q: With H-LVFFA[Aic″]-OH [h-LVFFA-(Aic)-oh] as the binder, how does the “% Iext'n” value read?
A: 3%

Q: What about the “% Inucl'n; nucleation assay; 100 mole %” value of the same binder?
A: 46%

Q: What about the “ΔLag; nucleation assay; 100 mole %” value of the same binder?
A: 3.5 ratio

B14: h-(Aic)-LVFFA-oh (peptide)
peptide: H-[Aic′]LVFFA-OH
SMILES: CC(C)C[C@H](NC(=O)CC[C@@H](C)[C@H]1CC[C@H]2[C@@H]3[C@H](O)C[C@@H]4C[C@@H](OCCN)CC[C@]4(C)[C@H]3C[C@H](O)[C@]12C)C(=O)N[C@H](C(=O)N[C@@H](Cc1ccccc1)C(=O)N[C@@H](Cc1ccccc1)C(=O)N[C@@H](C)C(=O)O)C(C)C
Q: How did the “% Iext'n” value turn out when B14 was run?
A: 87%

Q: What about the “% Inucl'n; nucleation assay; 33 mole %” value of the same binder?
A: 100%

Q: And the “ΔLag; nucleation assay; 33 mole %” value?
A: > 5 ratio

B15: CA-FFVLA-oh (peptide)
peptide: Cholyl-FFVLA-OH
SMILES: CC(C)C[C@H](NC(=O)[C@@H](NC(=O)[C@H](Cc1ccccc1)NC(=O)[C@H](Cc1ccccc1)NC(=O)CC[C@@H](C)[C@H]1CC[C@H]2[C@@H]3[C@H](O)C[C@@H]4C[C@H](O)CC[C@]4(C)[C@H]3C[C@H](O)[C@]12C)C(C)C)C(=O)N[C@@H](C)C(=O)O
Q: What does the source list for B15?
A: % Iext'n; seeded extension assay; 25 mole %: 89%; % Inucl'n; nucleation assay; 100 mole %: 100%; ΔLag; nucleation assay; 100 mole %: > 5 ratio
